{
  "source": "IntAct's records for PubMed 18449195",
  "parents": {"B1": {"name": "SOSS complex subunit B1 (Homo sapiens), Q9BQ15 (parent)", "chain": "MTTETFVKDIKPGLKNLNLIFIVLETGRVTKTKDGHEVRTCKVADKTGSINISVWDDVGNLIQPGDIIRLTKGYASVFKGCLTLYTGRGGDLQKIGEFCMVYSEVPNFSEPNPEYSTQQAPNKAVQNDSNPSASQPTTGPSAASPASENQNGNGLSAPPGPGGGPHPPHTPSHPPSTRITRSQPNHTPAGPPGPSSNPVSNGKETRRSSKR"}},
  "data": [
    {"variants_of": "B1", "conditions": "with atm_human ATM", "values": [
      {"variant": "T117A", "effect of a mutation on the interaction": "disrupting interaction"}
    ]}
  ]
}
